Reference: US20100196361A1, “Method of inhibition of vascular development using an antibody” (DYAX CORP., priority 2003, published 2010)
Residue numbers refer to the chain shown, from its start.

B1: E3: human anti-Tie1 antibody from phage Fab library, reformatted as IgG; HC variable SEQ ID NO:114, LC variable SEQ ID NO:116 (antibody, V domains shown)
VH: EVQLLESGGGLVQPGGSLRLSCAASGFTFSMYGMVWVRQAPGKGLEWVSVISPSGGNTGYADSVKGRFTISRDNSKNTLYLQVNSLRAEDTAVYYCARAPRGYSYGYYYWGQGTLVTVSSASTKGPSVFPLAPSSKSTSGG
VL: DIQMTQSPLSLSASVGDRVTITCRASQGIGHYLAWYQQKPGKVPKLLIYTASTLQSGVPSRFSGSGSGTDFTLTINSLQPEDVATYYCQQFNSYPHTFGQGTRLDIK
modifications: IgG constant regions; Synthetically generated peptide
B2: DX-2210: E3 antibody in which the light chain has been germlined (antibody, V domains shown)
VH: B1 VH
VL: B1 VL with L9S, N76S, D105E

Tests used:
Tie1 [1] = target: Tie1 (Homo sapiens, UniProt P35590); test: Tie1 phosphorylation assay; assay type: cell-based; parameters: an expression vector containing a V5-tagged full length Tie1 cDNA; expressed in transfected cells; host or cells: COS1
Sequence of Tie1 (Homo sapiens, UniProt P35590) (P35590 22-1138): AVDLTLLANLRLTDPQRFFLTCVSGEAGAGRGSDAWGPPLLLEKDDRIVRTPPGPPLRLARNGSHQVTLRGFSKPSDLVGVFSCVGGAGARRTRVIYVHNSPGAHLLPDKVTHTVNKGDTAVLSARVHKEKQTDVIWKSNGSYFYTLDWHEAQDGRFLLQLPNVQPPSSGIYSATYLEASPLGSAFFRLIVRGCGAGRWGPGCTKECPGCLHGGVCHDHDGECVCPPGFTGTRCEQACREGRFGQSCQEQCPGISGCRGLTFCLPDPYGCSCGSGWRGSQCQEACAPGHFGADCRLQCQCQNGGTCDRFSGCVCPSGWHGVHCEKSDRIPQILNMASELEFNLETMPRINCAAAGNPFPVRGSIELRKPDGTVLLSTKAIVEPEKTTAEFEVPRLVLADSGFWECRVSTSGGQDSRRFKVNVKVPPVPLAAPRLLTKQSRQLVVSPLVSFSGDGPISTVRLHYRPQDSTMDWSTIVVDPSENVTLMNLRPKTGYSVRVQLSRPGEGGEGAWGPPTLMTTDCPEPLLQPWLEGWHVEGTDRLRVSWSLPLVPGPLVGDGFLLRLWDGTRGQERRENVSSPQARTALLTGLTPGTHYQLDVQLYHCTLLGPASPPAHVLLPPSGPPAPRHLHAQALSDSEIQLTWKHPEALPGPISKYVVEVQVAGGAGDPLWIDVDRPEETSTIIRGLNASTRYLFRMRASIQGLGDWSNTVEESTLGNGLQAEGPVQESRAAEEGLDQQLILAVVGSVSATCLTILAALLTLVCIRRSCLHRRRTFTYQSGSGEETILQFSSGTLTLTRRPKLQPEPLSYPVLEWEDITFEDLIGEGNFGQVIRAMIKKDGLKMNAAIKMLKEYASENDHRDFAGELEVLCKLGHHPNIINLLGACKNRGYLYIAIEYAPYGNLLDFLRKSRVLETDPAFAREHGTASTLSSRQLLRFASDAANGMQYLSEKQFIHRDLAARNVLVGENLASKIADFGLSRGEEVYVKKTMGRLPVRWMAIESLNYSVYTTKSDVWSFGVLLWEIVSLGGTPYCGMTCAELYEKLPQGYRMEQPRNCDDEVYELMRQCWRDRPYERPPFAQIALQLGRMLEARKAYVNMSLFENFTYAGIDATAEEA
Description: Tie1 phosphorylation assay. COS1 cells were transfected with pcDNA3-Tie1-V5. After 24 h of transfection, the cells were serum starved for 8 h and then treated with E3 IgG. For the Tie1 phosphorylation assay, HDMVECs were cultured on 10 cm dishes to near confluence, starved (8-16 h) in serum free medium and stimulated as indicated. After the stimulations, the cells were lysed in lysis buffer (RIPA-DOC: 50 mM Tris-HCl pH 8.0, 150 mM NaCl, 1% Triton-X-100, 0.1% SDS, 0.5% DOC, 10 mM EDTA, supplemented with aprotinin, leupeptin, PMSF and sodium vanadate). Clarified lysates from transfected COS 1 cells or HDMVECs were immunoprecipitated with anti-V5 or anti-Tie1 B9, respectively. Proteins were separated by SDS-PAGE, transferred to nitrocellulose and immunoblotted using the anti-phosphotyrosine and anti-Tie1 (R&D systems) antibodies.
To test if the E3 IgG binding to the extracellular region of Tie1 induces autophosphorylation of Tie1, the Tie1 receptor phosphorylation level in response to E3 IgG treatment was studied in transiently transfected COS 1 cells and human primary endothelial cells. COS 1 cells were transfected with an expression vector containing a V5-tagged full length Tie1 cDNA, and, after serum starvation, the cells were treated with E3 IgG (200 ng/ml). Cell lysates were extracted at several time points and Tie1 was immunoprecipitated with anti-V5 followed by western blotting using anti-phosphotyrosine and anti-Tie1 antibodies. […] To determine if E3 IgG induces Tie1 phosphorylation in primary endothelial cells, HDMVEC cells were serum starved and stimulated with several concentrations of E3 for 60 min. […] Also higher concentrations of E3 (500-1000 ng/ml) induced Tie1 phosphorylation but the response was more rapid and was most prominent after 5 min of stimulation.
To study the kinetics of E3 IgG induced Tie1 activation, cells were stimulated with E3 IgG (200 ng/ml) and receptor phosphorylation was studied at various time points. Tie1 phosphorylation was highest 15-30 min after E3 IgG treatment but phosphorylation persisted for up to 1 h.

Tie1 [2] = test: Immunohistochemistry of mouse xenograft tumor sections (SW480); assay type: binding; details: biotinylated antibody 10 μg/ml, formalin-fixed paraffin sections
Description: We determined if antibody E3 binds to mouse endothelial cells in mouse xenographs. Immunohistochemistry was performed with biotinylated E3 IgG1 (a,z allotype) antibody and control antibodies anti-CD31 (endothelial cell specific marker) and anti-PCNA (proliferating cell nuclear antigen). Formalin-fixed tumor tissues from a mouse-xenograph containing SW480 cells (ATCC) were tested for the binding pattern of the human anti-Tie1 antibody E3. 5 μm sections of paraffin embedded tissues were deparaffinized, rehydrated and pretreated with warm the citrate buffer (0.01 M sodium citrate, pH6 at 95° C.) for 45 min. The slides were cooled down in fresh citrate buffer for 20 min and rinsed with distilled water. The slides were hydrogen peroxide treated, (0.3% H2O2 in PBS), and preincubated with PBS, 5% FCS, 5% heat inactivated human serum (HS) for 1 hour. Between antibody incubations slides were washed 3 times 5 minutes in PBS. Biotinylated antibodies E3 and A2-SV were diluted to a concentration of 10 μg/ml in PBS, 10% HS and incubated for 1 hour at RT. Slides were then incubated with an avidin-HRP (Dako) for 30 minutes at room temperature. Staining was detected by AEC (Vector Laboratories, Burlingame) and H2O2. The peroxidase reaction was stopped with water and slides were counter-stained with haematoxylin. The tissues were evaluated for their binding reactivity.

[3] = system: LEII lung mouse endothelial cell line; test: Tube formation by mouse endothelial cell line LEII on […]; assay type: cell-based; details: LEII cells on MATRIGEL, 16 to 18 hours
Description: In order to assess mouse Tie1 cross-reactivity and biological activity on mouse Tie1, both E3 and germlined E3 were evaluated for their ability to inhibit tube formation in vitro using mouse endothelial cell line (LEII).
LEII lung mouse endothelial cell line (ATCC) was cultured in a T-25 flask in MEM medium with GLUTAMAX™ (Life Technologies Ltd., Paisley, Scotland) supplemented with 10% FCS, and 1% penicillin/streptomycin. During culturing, the cells were kept in a proliferative state by culturing them in a split ratio 1:5 at an approximate density of the monolayer of about 80%. LEII monolayers were treated with trypsin/EDTA (500 μl/dish) at 37° C. for 3 min. Trypsin activity was stopped by adding 3 volumes of complete MEM medium. The cells were carefully scraped, separated by repeated pipetting, and finally washed with PBS.LEII cells were seeded in their culture medium (20-40×103/50 μl/well of a 96-well plate) on a basement membrane (BIOCOAT™ Angiogenesis System; Becton Dickinson). […] The total length of the tube network was then quantified at 40× magnification by the METAVUE™ Software (Universal Imaging Corporation). Results from triplicate wells were expressed as mean vessel area per field ±SEM (relative units). […]

Molecule | persistence of Tie1 phosphorylation (Tie1 [1]; 200 ng/ml) | time of highest Tie1 phosphorylation (Tie1 [1]; 200 ng/ml) [min] | concentration giving receptor phosphorylation (Tie1 [1]; HDMVEC, serum starved, 60 min stimulation) [ng/mL] | time of most prominent Tie1 phosphorylation (Tie1 [1]; HDMVEC, 500-1000 ng/ml) [min] | staining pattern in SW480 mouse xenograft sections (Tie1 [2]) | inhibition of tube formation in mouse endothelial cells [3]
B1 | up to 1 h | 15 to 30 | 50 to 200 | 5 | consistent with staining of mouse endothelial cell Tie1 | –
B2 | – | – | – | – | – | potent inhibitor of tube formation in mouse endothelial cells
